The record followed here is patent publication US20100092522A1 (published 2010).

Test [1] deals with T1, HLA-A0301 molecule on Raji HLA-A0301 cells (human).
T1 construct: It says only 'thermostabilization assays using; Raji HLA-A0301 cells'
Nature of the test: thermostabilization assay on Raji HLA-A0301 cells, fluorescence index.

Test [2] has as its target T2, HLA-A0201 molecule on T2 cells (TAP-, HLA-A0201+) (human).
T2 construct: MHC class I molecule without a defined peptide; also called HLA-A2.1
The experiment in a line: T2 thermostabilization assay, flow cytometry of surface HLA-A2 (BB7.2), fluorescence index; native peptide as reference. As to the method: (§1) T2 cells (TAP⁻, HLA-A0201⁺) were incubated overnight at 27° C. at a concentration of 1×10⁶ cells/ml in FCS-free RPMI medium supplemented with 5 μg/ml human β₂m (Sigma, St Louis, Mo.) in the absence (negative control) or presence of either a positive reference tyrosinase peptide or test peptides at various final concentrations (50, 10, 1, and 0.1 micrograms (μg)/ml). Following a 4-hour incubation with 5 μg/ml brefeldin A (Sigma), T2 cells were labeled for 30 minutes at 4° C. with a saturating concentration of anti-HLA-A2.1 (BB7.2) mAb, then washed twice. Cells were then incubated for 30 minutes, 4° C. with a saturating concentration of FITC-conjugated goat IgG F(ab′)2 anti-mouse Ig (Caltag, San Francisco, Calif.), washed twice, fixed in PBS/1% paraformaldehyde and analyzed using a FACS Calibur® cytofluorometer (Becton Dickinson, Immunocytometry Systems, San Jose, Calif.).
(§2) Following initial evaluation of peptide binding at time 0, cells were washed in RPMI complete medium to remove free peptides and incubated in the continuous presence of 0.5 μg/ml brefeldin-A for 2, 4, 6 or 8 hours.
Background: In flow cytometry, cells or beads pass a laser one at a time.

Test [3] has as its target T2, HLA-A0201 molecule on T2 cells (TAP-, …). The experiment in a line: T2 stabilization assay of Example 1, as told in the description. The protocol: as §1, §2
Test [4] has the same target. Nature of the test: T2 thermostabilization assay, flow cytometry of surface HLA-A2 (BB7.2), fluorescence index. The protocol: as §1, §2

On to QMNLGATLK [A3 WT1 B (native)], for which the binding result in test [1] is listed as “binds”.
Same read-out and setting: in the case of QMYLGATLK [A3 WT1 B1 (analogue)] it was “binds”; in that of QMNLGVTLK [A3 WT1 B2 (analogue)], “binds”.
With QMYLGVTLK [A3 WT1 B3 (analogue)], the binding result in test [1] was “binds”.
As to ALLPAVPSL [WT1 C (native)], the binding result in test [2] is on record as “binds”.
YLLPAVPSL [WT1 C1 (analogue)]: the binding result in test [3] was “binds”.
In the case of SLGEQQYSV [WT1 B (native)], the binding result in test [2] is “binds”.
Take YLGEQQYSV [WT1 B1 (analogue)]: the binding result in test [4] is reported as “binds”.
With RMFPNAPYL (also called WT1A (126-134)) [WT1 A (native)], the binding result in test [2] is listed as “binds”.
In the case of YMFPNAPYL [WT1 A1 (analogue)], the binding result in test [4] is “binds”.
With NLGATLKGV [WT1 D (native)], the binding result in test [2] is reported as “binds”.
YLGATLKGV [WT1 D1 (analogue)]: the binding result in test [4] is “binds”.
For NMHQRNMTK [A3 WT1 A (native)], the binding result in test [1] was “binds”.
On the same count and under the same terms, in the case of NMHQRVMTK [A3 WT1 A2 (analogue)] it was “binds”.
On the same count and under the same terms, in the case of NMYQRVMTK [A3 WT1 A3 (analogue)] it was “binds”.
As for NMYQRNMTK [A3 WT1 A1 (analogue)], in test [1], the binding result is “binds”.
On the same count and under the same terms, in the case of FMCAYPGCNK [A3 WT1 C (native)] it was “binds”.
Still for that read-out and setting: the result for FMCAYPFCNK [A3 WT1 C2 (analogue)] reads “binds”; that for FMYAYPFCNK [A3 WT1 C3 (analogue)], “binds”; that for FMYAYPGCNK [A3 WT1 C1 (analogue)], “binds”.
Still for that read-out and setting: the result for KLSHLQMHSR [A3 WT1 D (native)] reads “binds”; that for KLYHLQMHSR [A3 WT1 D1 (analogue)], “binds”.
KLYHLQMHSK [A3 WT1 D3 (analogue)]: the binding result in test [1] is “binds”.
On the same count and under the same terms, the result for KLSHLQMHSK [A3 WT1 D2 (analogue)] reads “binds”.
